Key:
[1] = molecular target: C-terminal domain of Clostridium perfringens enterotoxin (cCpE), tagless (Clostridium perfringens, UniProt P01558)
[2] = molecular target: T1, hsCLDN-4/cCpE complex (tagless proteins) (Homo sapiens CLDN4; Clostridium …)
T1 chain 1: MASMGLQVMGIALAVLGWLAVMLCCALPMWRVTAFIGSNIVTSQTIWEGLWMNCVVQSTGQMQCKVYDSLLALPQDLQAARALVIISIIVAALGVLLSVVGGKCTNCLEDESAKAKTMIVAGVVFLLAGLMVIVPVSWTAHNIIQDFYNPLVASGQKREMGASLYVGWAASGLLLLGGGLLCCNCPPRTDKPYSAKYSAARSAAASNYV
T1 chain 2: not shown

[3] = molecular target: T2, Clostridium perfringens enterotoxin with C-terminal decahistidine tag (CpE-His10) (Clostridium perfringens, UniProt P01558 1-319); test: BLI; conditions: both partners purified
T2 sequence: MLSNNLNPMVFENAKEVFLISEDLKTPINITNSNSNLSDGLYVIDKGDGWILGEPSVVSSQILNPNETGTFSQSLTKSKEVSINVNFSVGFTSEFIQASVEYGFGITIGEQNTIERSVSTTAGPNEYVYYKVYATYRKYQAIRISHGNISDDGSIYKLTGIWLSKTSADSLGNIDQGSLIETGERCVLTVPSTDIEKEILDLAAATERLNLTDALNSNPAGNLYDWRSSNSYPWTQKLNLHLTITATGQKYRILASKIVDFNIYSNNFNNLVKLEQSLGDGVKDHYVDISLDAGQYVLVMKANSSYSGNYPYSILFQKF

[4] = molecular target: T3, pre-formed hsCLDN-3-Biotin/CpE-His10 complex (Homo sapiens CLDN3; Clostridium …, UniProt O15551;P01558); test: BLI; conditions: both partners purified
T3 construct: source: pre-formed from the purified proteins (same method as the cCpE complexes)

[5] = molecular target: T4, C-terminal domain of Clostridium perfringens enterotoxin with decahistidine tag (cCpE-His10) (Clostridium perfringens, UniProt P01558); test: BLI; conditions: both partners purified
T4 construct: source: insect cells, purified (NiNTA, eluted with imidazole); not shown: His10, C-terminal, kept

[6] = molecular target: T5, pre-formed non-detergent hsCLDN-4/cCpE-His10 complex (hsCLDN-4 in amphipol A8-35 or in nanodiscs) (Homo sapiens CLDN4; Clostridium …); test: BLI; conditions: both partners purified
T5 chain 1: T1 chain 1
T5 chain 2: not shown

B1: COP-3 (antibody, V domains shown)
VH: EVQLVESGGGLVQPGGSLRLSCAASGFNFYSSSIHWVRQAPGKGLEWVAYISSYSGYTYYADSVKGRFTISADTSKNTAYLQMNSLRAEDTAVYYCARGYGYFDYNFSVGYALDYWGQGTLVTVSS
VL: DIQMTQSPSSLSASVGDRVTITCRASQSVSSAVAWYQQKPGKAPKLLIYSASSLYSGVPSRFSGSRSGTDFTLTISSLQPEDFATYYCQQSHPWYYPITFGQGTKVEIK
**Q.** What does the source list for B1?
**A.** binding result [1]: binds; binding result [2]: binds

B2: human claudin-3, biotinylated (hsCLDN-3-Biotin) (natural protein)
chain: MSMGLEITGTALAVLGWLGTIVCCALPMWRVSAFIGSNIITSQNIWEGLWMNCVVQSTGQMQCKVYDSLLALPQDLQAARALIVVAILLAAFGLLVALVGAQCTNCVQDDTAKAKITIVAGVLFLLAALLTLVPVSWSANTIIRDFYNPVVPEAQKREMGAGLYVGWAAAALQLLGGALLCCSCPPREKKYTATKVVYSAPRSTGPGASLGTGYDRKDYV
modifications: biotin (NHS-PEG4-Biotin) on the N-terminal amine
**Q.** For B2, which Kd [3] is on record?
**A.** 77.6 ± 0.9 nM

B3: human claudin-4, biotinylated (hsCLDN-4-Biotin) (natural protein)
chain: T1 chain 1
modifications: biotin (NHS-PEG4-Biotin) on the N-terminal amine
**Q.** For B3, which Kd [3] is on record?
**A.** 7.3 ± 0.2 nM

B4: human claudin-9, biotinylated (hsCLDN-9-Biotin) (natural protein)
chain: MASTGLELLGMTLAVLGWLGTLVSCALPLWKVTAFIGNSIVVAQVVWEGLWMSCVVQSTGQMQCKVYDSLLALPQDLQAARALCVIALLLALLGLLVAITGAQCTTCVEDEGAKARIVLTAGVILLLAGILVLIPVCWTAHAIIQDFYNPLVAEALKRELGASLYLGWAAAALLMLGGGLLCCTCPPPQVERPRGPRLGYSIPSRSGASGLDKRDYV
modifications: biotin (NHS-PEG4-Biotin) on the N-terminal amine
**Q.** B4 was tested. Which Kd [3] did it give?
**A.** 10.5 ± 0.2 nM

B5: mouse claudin-3, biotinylated (mmCLDN-3-Biotin) (natural protein)
chain: MSMGLEITGTSLAVLGWLCTIVCCALPMWRVSAFIGSSIITAQITWEGLWMNCVVQSTGQMQCKMYDSLLALPQDLQAARALIVVSILLAAFGLLVALVGAQCTNCVQDETAKAKITIVAGVLFLLAALLTLVPVSWSANTIIRDFYNPLVPEAQKREMGAGLYVGWAAAALQLLGGALLCCSCPPRDKYAPTKILYSAPRSTGPGTGTGTAYDRKDYV
modifications: biotin (NHS-PEG4-Biotin) on the N-terminal amine
**Q.** Which Kd [3] does the source give for B5 here?
**A.** 16.1 ± 0.2 nM

B6: mouse claudin-4, biotinylated (mmCLDN-4-Biotin) (natural protein)
chain: MASMGLQVLGISLAVLGWLGIILSCALPMWRVTAFIGSNIVTAQTSWEGLWMNCVVQSTGQMQCKMYDSMLALPQDLQAARALMVISIIVGALGMLLSVVGGKCTNCMEDETVKAKIMITAGAVFIVASMLIMVPVSWTAHNVIRDFYNPMVASGQKREMGASLYVGWAASGLLLLGGGLLCCSCPPRSNDKPYSAKYSAARSVPASNYV
modifications: biotin (NHS-PEG4-Biotin) on the N-terminal amine
**Q.** B6 was tested. Which Kd [3] did it give?
**A.** 17.9 ± 0.2 nM

B7: COP-1 (CpE Obstructing Protein 1), synthetic antibody fragment (Fab, V domains shown)
VH: EVQLVESGGGLVQPGGSLRLSCAASGFNFSSSYIHWVRQAPGKGLEWVASISSSSGSTSYADSVKGRFTISADTSKNTAYLQMNSLRAEDTAVYYCARWFHPWWWWEYLFRGAIDYWGQGTLVTVSS
VL: DIQMTQSPSSLSASVGDRVTITCRASQSVSSAVAWYQQKPGKAPKLLIYSASSLYSGVPSRFSGSRSGTDFTLTISSLQPEDFATYYCQQSSSSLITFGQGTKVEIK
notes: also called sFab
**Q.** Does B7 bind [4]?
**A.** no binding (tested: 250 nM COP-1)

**Q.** Does B7 bind [5]?
**A.** no binding (tested: 0–750 nM COP-1)

**Q.** And the Kd [6]?
**A.** < 100 nM

Source: article PMC11183071 (Communications Biology, 2024)
